From publication doi:10.1101/2022.11.04.515170

Columns and labels:
GFP-SNX4 = GFP-SNX4 (UniProt O95219); assay: co-IP
GFP-SNX4, O95219 = target: T1, GFP-SNX4, O95219; assay: co-IP; details: remark: other sources report otherwise
T1 chain: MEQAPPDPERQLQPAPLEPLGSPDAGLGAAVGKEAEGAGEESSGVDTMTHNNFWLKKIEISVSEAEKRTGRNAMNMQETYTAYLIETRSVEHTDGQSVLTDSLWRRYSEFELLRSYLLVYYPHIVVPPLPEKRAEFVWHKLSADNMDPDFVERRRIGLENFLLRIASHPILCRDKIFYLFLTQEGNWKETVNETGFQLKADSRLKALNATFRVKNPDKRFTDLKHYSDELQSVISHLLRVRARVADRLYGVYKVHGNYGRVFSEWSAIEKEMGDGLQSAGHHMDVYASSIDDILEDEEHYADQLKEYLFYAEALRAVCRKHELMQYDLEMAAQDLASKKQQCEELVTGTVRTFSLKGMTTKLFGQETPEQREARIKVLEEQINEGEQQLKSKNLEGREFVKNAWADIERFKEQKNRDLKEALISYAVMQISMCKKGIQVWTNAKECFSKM

HA-SNX32 A226E (from UniProt Q86XE0 1-403) (natural protein)
ratio of HA to GFP band intensity (GFP-SNX4): 0.65

B1: HA-SNX32 FL, Q86XE0 1-403 (natural protein)
chain: METYAEVGKEGKPSCASVDLQGDSSLQVEISDAVSERDKVKFTVQTKSCLPHFAQTEFSVVRQHEEFIWLHDAYVENEEYAGLIIPPAPPRPDFEASREKLQKLGEGDSSVTREEFAKMKQELEAEYLAIFKKTVAMHEVFLQRLAAHPTLRRDHNFFVFLEYGQDLSVRGKNRKELLGGFLRNIVKSADEALITGMSGLKEVDDFFEHERTFLLEYHTRIRDACLRADRVMRAHKCLADDYIPISAALSSLGTQEVNQLRTSFLKLAELFERLRKLEGRVASDEDLKLSDMLRYYMRDSQAAKDLLYRRLRALADYENANKALDKARTRNREVRPAESHQQLCCQRFERLSDSAKQELMDFKSRRVSSFRKNLIELAELELKHAKASTLILRNTLVALKGEP
ratio of HA to GFP band intensity (GFP-SNX4, O95219): 0.92
